Assay results as given in paper PMC5811392 (Biochemistry, 2018).
Values belong to the binder of their own block, whether it stands above or below them.

How the values were obtained:
[1] = target: T1, Human p53 DNA-binding domain (residues 88-312) (human, UniProt P04637 88-312); test: NMR titration
[2] = target: T1, Human p53 DNA-binding domain (residues …); test: ITC
[3] = target: T1, Human p53 DNA-binding domain (residues …); test: fluorescence polarisation

T1 sequence (P04637 88-312): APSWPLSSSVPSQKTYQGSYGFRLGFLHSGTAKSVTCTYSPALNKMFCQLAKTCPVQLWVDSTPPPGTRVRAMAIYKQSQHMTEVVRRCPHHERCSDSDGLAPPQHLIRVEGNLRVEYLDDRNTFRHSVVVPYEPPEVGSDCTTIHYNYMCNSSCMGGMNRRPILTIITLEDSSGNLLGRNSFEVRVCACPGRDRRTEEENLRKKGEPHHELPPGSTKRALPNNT

Kd [1]: 6 ± 4 µM
B1: GB1-p23 (110-160) (domain or fragment, human, UniProt Q15185 110-160, looked up)
chain: EDDSDEDMSNFDRFSEMMNNMGGDEDVDLPEVDGADDDSQDSDDEKMPDLE

Kd [2]: 24 ± 15 µM
B2: GB1-p23 (120-160) (domain or fragment, human, UniProt Q15185 120-160, looked up)
chain: FDRFSEMMNNMGGDEDVDLPEVDGADDDSQDSDDEKMPDLE

Kd [2]: 7 ± 2 µM | dH [2]: -1.9 ± 100 kcal/mol | Kd [3]: 21 ± 7 µM | Kd [1]: 8 ± 2 µM
B3: full length p23 (residues 1-160) (natural protein, human, UniProt Q15185 1-160, looked up)
chain: MQPASAKWYDRRDYVFIEFCVEDSKDVNVNFEKSKLTFSCLGGSDNFKHLNEIDLFHCIDPNDSKHKRTDRSILCCLRKGESGQSWPRLTKERAKLNWLSVDFNNWKDWEDDSDEDMSNFDRFSEMMNNMGGDEDVDLPEVDGADDDSQDSDDEKMPDLE
